# Test results: US20040248202A1 (WISCONSIN ALUMNI RESEARCH FOUNDATION, published 2004)
# B1: BR-Rhodopsin loop 3 chimera, Rhodopsin Insert Y223 to M253 (3C) (other)
# chain: QAQITGRPEWIWLALGTALMGLGTLYFLVKGMGVSDPDAKKFYAITTLVPAIAFTMYLSMLLGYGLTMVPFGGEQNPIYWARYADWLFTTPLLLLDLALLVDADQGTILALVGADGIMIGTGLVGALTKVYSYRFVWWAISTAAMLYILYVLFFGFTYGQLVFTVKEAAAQQQESATTQKAEKEVTRMVASTFKVLRNVTVVLWSAYPVVWLIGSEGAGIVPLNIETLLFMVLDVSAKVGFGLILLRSRAIFGEAEAPEPSAGDGAAATSD
# B2: bacteriorhodopsin (other)
# chain: QAQITGRPEWIWLALGTALMGLGTLYFLVKGMGVSDPDAKKFYAITTLVPAIAFTMYLSMLLGYGLTMVPFGGEQNPIYWARYADWLFTTPLLLLDLALLVDADQGTILALVGADGIMIGTGLVGALTKVYSYRFVWWAISTAAMLYILYVLFFGFTSKAESMRPEVASTFKVLRNVTVVLWSAYPVVWLIGSEGAGIVPLNIETLLFMVLDVSAKVGFGLILLRSRAIFGEAEAPEPSAGDGAAATSD
# B3: BR-Rhodopsin loop 3 chimera, Rhodopsin Insert Q225 to R252 (3H) (other)
# chain: QAQITGRPEWIWLALGTALMGLGTLYFLVKGMGVSDPDAKKFYAITTLVPAIAFTMYLSMLLGYGLTMVPFGGEQNPIYWARYADWLFTTPLLLLDLALLVDADQGTILALVGADGIMIGTGLVGALTKVYSYRFVWWAISTAAMLYILYVLFFGFTQLVFTVKEAAAQQQESATTQKAEKEVTRVASTFKVLRNVTVVLWSAYPVVWLIGSEGAGIVPLNIETLLFMVLDVSAKVGFGLILLRSRAIFGEAEAPEPSAGDGAAATSD
# B4: BR-Rhodopsin loop 3 chimera, Rhodopsin Insert Y223 to R252 (3G) (other)
# chain: QAQITGRPEWIWLALGTALMGLGTLYFLVKGMGVSDPDAKKFYAITTLVPAIAFTMYLSMLLGYGLTMVPFGGEQNPIYWARYADWLFTTPLLLLDLALLVDADQGTILALVGADGIMIGTGLVGALTKVYSYRFVWWAISTAAMLYILYVLFFGFTYGQLVFTVKEAAAQQQESATTQKAEKEVTRVASTFKVLRNVTVVLWSAYPVVWLIGSEGAGIVPLNIETLLFMVLDVSAKVGFGLILLRSRAIFGEAEAPEPSAGDGAAATSD
# B5: BR-Rhodopsin loop 3 chimera, Rhodopsin Insert Q225 to T251 (3D) (other)
# chain: QAQITGRPEWIWLALGTALMGLGTLYFLVKGMGVSDPDAKKFYAITTLVPAIAFTMYLSMLLGYGLTMVPFGGEQNPIYWARYADWLFTTPLLLLDLALLVDADQGTILALVGADGIMIGTGLVGALTKVYSYRFVWWAISTAAMLYILYVLFFGFTQLVFTVKEAAAQQQESATTQKAEKEVTVASTFKVLRNVTVVLWSAYPVVWLIGSEGAGIVPLNIETLLFMVLDVSAKVGFGLILLRSRAIFGEAEAPEPSAGDGAAATSD
# B6: BR-Rhodopsin loop 3 chimera, Rhodopsin Insert Y223 to T251 (3B) (other)
# chain: QAQITGRPEWIWLALGTALMGLGTLYFLVKGMGVSDPDAKKFYAITTLVPAIAFTMYLSMLLGYGLTMVPFGGEQNPIYWARYADWLFTTPLLLLDLALLVDADQGTILALVGADGIMIGTGLVGALTKVYSYRFVWWAISTAAMLYILYVLFFGFTYGQLVFTVKEAAAQQQESATTQKAEKEVTVASTFKVLRNVTVVLWSAYPVVWLIGSEGAGIVPLNIETLLFMVLDVSAKVGFGLILLRSRAIFGEAEAPEPSAGDGAAATSD
# B7: BR-Rhodopsin loop 3 chimera, Rhodopsin Insert G224 to M253 (3E) (other)
# chain: QAQITGRPEWIWLALGTALMGLGTLYFLVKGMGVSDPDAKKFYAITTLVPAIAFTMYLSMLLGYGLTMVPFGGEQNPIYWARYADWLFTTPLLLLDLALLVDADQGTILALVGADGIMIGTGLVGALTKVYSYRFVWWAISTAAMLYILYVLFFGFTGQLVFTVKEAAAQQQESATTQKAEKEVTRMVASTFKVLRNVTVVLWSAYPVVWLIGSEGAGIVPLNIETLLFMVLDVSAKVGFGLILLRSRAIFGEAEAPEPSAGDGAAATSD
# Target: holotransducin
# Test: cell-based or functional assay
row,"Activation (3C) over Basal Exchange, 100 uM GDP [fold]",Binder
1,1.67,B1

# Target: holotransducin
# Test: cell-based or functional assay
# Remark: another data set of the same source
Activation (Fold increase) over BR [fold],Activation (Fold increase) over Basal [fold],"Specific counts (Lattice Form) (at 30 min), 35S-GTPyS uptake [specific counts]",Binder
2.22,1.6,262000,B1
,,118000,B2
1.6,1.17,193000,B3
1.55,1.1,183000,B4

# Target: holotransducin
# Test: cell-based or functional assay
# Remark: another data set of the same source
Activation (x100%) Over Basal Exchange,"Specific counts (Lattice Form), 10 Minutes, GTPyS uptake [specific counts]",Binder
1 x100%,53400,B5
1.17 x100%,62800,B6
1.44 x100%,,B1
1.46 x100%,78400,B7
